In paper PMC4820698:

Columns and labels:
[1] = target: MBP-5-HT3A-ICD fusion protein (cytoplasmic domain of the mouse 5-HT3A receptor fused to the C-terminus of maltose binding protein) (mouse); assay: cross-linking; glutaraldehyde by vapor diffusion at 30 °C, 0.5 μg purified protein in buffer B; resolved by SDS-PAGE with Western blot (anti-MBP) or denaturing capillary gel electrophoresis
[2] = target: MBP-5-HT3A-ICD fusion protein (cytoplasmic domain of the mouse 5-HT3A receptor fused to the C-terminus of maltose binding protein) (mouse); assay: SEC; Superdex 200 10/300 GL, 20 mM HEPES, 150 mM NaCl, 0.02% NaN3, pH 7.4; weight from calibration with standard proteins
[3] = target: MBP-5-HT3A-ICD fusion protein (cytoplasmic domain of the mouse 5-HT3A receptor fused to the C-terminus of maltose binding protein) (mouse); assay: SEC-MALS; Superdex 200 HR 10/300 GL, 20 mM HEPES, 150 mM NaCl, 5 mM maltose, 0.01% NaN3, pH 7.4, ambient temperature, 0.1-1.0 mg protein loaded

Measured: stoichiometry N

MBP-5-HT3A-ICD fusion protein (cytoplasmic domain of the mouse 5-HT3A receptor fused to the C-terminus of maltose binding protein) (domain or fragment)
5: all assays above
